Assay results taken from patent publication US20200207850A1 (MacroGenics, published 2020).

T1: 5T4 on JIMT-1 target cells (UniProt Q13641 32-420, limits assumed)
T1 sequence (looked up): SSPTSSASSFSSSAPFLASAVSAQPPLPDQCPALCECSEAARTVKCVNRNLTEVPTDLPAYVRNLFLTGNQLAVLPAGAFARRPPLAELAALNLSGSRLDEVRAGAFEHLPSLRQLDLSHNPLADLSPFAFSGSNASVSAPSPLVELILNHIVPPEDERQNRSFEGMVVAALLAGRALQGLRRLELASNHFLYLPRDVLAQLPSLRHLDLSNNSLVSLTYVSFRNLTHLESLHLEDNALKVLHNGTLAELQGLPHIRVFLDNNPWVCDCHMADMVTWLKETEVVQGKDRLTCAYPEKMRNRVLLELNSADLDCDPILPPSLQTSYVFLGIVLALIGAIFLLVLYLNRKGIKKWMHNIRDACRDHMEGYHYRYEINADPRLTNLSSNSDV

T2: B7-H3 on A498 and JIMT-1 target cells (UniProt Q5ZPR3 29-534, limits assumed)
T2 sequence (looked up): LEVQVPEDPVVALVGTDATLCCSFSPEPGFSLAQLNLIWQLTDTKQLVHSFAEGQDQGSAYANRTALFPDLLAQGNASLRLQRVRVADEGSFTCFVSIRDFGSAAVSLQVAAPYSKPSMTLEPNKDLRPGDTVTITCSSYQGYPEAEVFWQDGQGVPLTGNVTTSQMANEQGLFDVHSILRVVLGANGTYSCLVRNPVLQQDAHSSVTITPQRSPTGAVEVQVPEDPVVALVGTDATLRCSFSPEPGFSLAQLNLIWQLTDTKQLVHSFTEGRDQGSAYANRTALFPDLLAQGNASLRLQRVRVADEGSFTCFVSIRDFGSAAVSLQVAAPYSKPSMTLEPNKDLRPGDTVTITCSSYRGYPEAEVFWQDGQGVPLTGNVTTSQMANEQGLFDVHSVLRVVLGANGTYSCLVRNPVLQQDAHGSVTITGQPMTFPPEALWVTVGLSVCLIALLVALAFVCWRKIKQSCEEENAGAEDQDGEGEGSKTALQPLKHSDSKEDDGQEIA

B1: 5T4 mAb 2/CD3 mAb 2/CD8 mAb 1 Tri-Specific Binding Molecule (other)
chain 1: DVLMTQTPLSLPVSLGDQASISCRSSQSIVYSNGNTYLEWYLQKPGQSPKLLIYKVSNRFSGVPDRFSGSGSGTDFTLKISRVEAEDLGVYYCFQGSHVPFTFGSGTKLEIKGGGSGGGGEVQLVESGGGLVQPGGSLRLSCAASGFTFSTYAMNWVRQAPGKGLEWVGRIRSKYNNYATYYADSVKGRFTISRDDSKNSLYLQMNSLKTEDTAVYYCVRHGNFGNSYVSWFAYWGQGTLVTVSSGGCGGGEVAALEKEVAALEKEVAALEKEVAALEKGGGDKTHTCPPCPAPEAAGGPSVFLFPPKPKDTLMISRTPEVTCVVVDVSHEDPEVKFNWYVDGVEVHNAKTKPREEQYNSTYRVVSVLTVLHQDWLNGKEYKCKVSNKALPAPIEKTISKAKGQPREPQVYTLPPSREEMTKNQVSLWCLVKGFYPSDIAVEWESNGQPENNYKTTPPVLDSDGSFFLYSKLTVDKSRWQQGNVFSCSVMHEALHNHYTQKSLSLSPGK
chain 2: QAVVTQEPSLTVSPGGTVTLTCRSSTGAVTTSNYANWVQQKPGQAPRGLIGGTNKRAPWTPARFSGSLLGGKAALTITGAQAEDEADYYCALWYSNLWVFGGGTKLTVLGGGGSGGGGQVQLQQPGAELVKPGASVKMSCKASGYTFTSYWITWVKQRPGQGLEWIGDIYPGSGRANYNEKFKSKATLTVDTSSSTAYMQLSSLTSEDSAVYNCARYGPLFTTVVDPNSYAMDYWGQGTSVTVSSGGCGGGKVAALKEKVAALKEKVAALKEKVAALKE
heavy: EVQLQQSGAELVKPGASVKLSCTASGFNIKDTYIHFVRQRPEQGLEWIGRIDPANDNTLYASKFQGKATITADTSSNTAYMHLCSLTSGDTAVYYCGRGYGYYVFDHWGQGTTLTVSSASTKGPSVFPLAPSSKSTSGGTAALGCLVKDYFPEPVTVSWNSGALTSGVHTFPAVLQSSGLYSLSSVVTVPSSSLGTQTYICNVNHKPSNTKVDKRVEPKSCDKTHTCPPCPAPEAAGGPSVFLFPPKPKDTLMISRTPEVTCVVVDVSHEDPEVKFNWYVDGVEVHNAKTKPREEQYNSTYRVVSVLTVLHQDWLNGKEYKCKVSNKALPAPIEKTISKAKGQPREPQVYTLPPSREEMTKNQVSLSCAVKGFYPSDIAVEWESNGQPENNYKTTPPVLDSDGSFFLVSKLTVDKSRWQQGNVFSCSVMHEALHNRYTQKSLSLSPGK
light: DVQINQSPSFLAASPGETITINCRTSRSISQYLAWYQEKPGKTNKLLIYSGSTLQSGIPSRFSGSGSGTDFTLTISGLEPEDFAMYYCQQHNENPLTFGAGTKLELRRTVAAPSVFIFPPSDEQLKSGTASVVCLLNNFYPREAKVQWKVDNALQSGNSQESVTEQDSKDSTYSLSSTLTLSKADYEKHKVYACEVTHQGLSSPVTKSFNRGEC
B2: 5T4 mAb 2/CD3 mAb 2/CD8 mAb 2 Tri-Specific Binding Molecule (other)
chain 1: B1 chain 1
chain 2: B1 chain 2
heavy: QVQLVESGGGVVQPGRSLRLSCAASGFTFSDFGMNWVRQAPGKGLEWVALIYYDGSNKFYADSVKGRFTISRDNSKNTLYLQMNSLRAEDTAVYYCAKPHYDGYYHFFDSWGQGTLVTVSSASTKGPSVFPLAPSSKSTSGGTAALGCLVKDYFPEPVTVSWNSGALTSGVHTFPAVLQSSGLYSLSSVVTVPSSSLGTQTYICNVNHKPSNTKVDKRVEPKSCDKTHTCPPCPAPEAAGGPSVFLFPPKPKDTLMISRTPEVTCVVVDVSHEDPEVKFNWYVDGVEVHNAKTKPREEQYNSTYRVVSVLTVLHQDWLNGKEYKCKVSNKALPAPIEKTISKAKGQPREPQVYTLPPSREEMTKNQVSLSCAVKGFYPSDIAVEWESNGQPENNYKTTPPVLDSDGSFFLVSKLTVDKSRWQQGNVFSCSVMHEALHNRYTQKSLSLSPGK
light: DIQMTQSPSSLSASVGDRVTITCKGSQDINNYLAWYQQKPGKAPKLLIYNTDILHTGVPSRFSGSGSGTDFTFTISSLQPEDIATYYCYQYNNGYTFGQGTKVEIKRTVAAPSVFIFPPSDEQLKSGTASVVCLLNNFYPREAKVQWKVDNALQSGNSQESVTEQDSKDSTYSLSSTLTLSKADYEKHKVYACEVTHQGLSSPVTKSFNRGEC
B3: CD3 mAb 2/CD8 mAb 1/B7-H3 mAb 1 Tri-Specific Binding Molecule (other)
chain 1: DVQINQSPSFLAASPGETITINCRTSRSISQYLAWYQEKPGKTNKLLIYSGSTLQSGIPSRFSGSGSGTDFTLTISGLEPEDFAMYYCQQHNENPLTFGAGTKLELRGGGSGGGGEVQLVESGGGLVQPGGSLRLSCAASGFTFSTYAMNWVRQAPGKGLEWVGRIRSKYNNYATYYADSVKGRFTISRDDSKNSLYLQMNSLKTEDTAVYYCVRHGNFGNSYVSWFAYWGQGTLVTVSSGGCGGGEVAALEKEVAALEKEVAALEKEVAALEKGGGDKTHTCPPCPAPEAAGGPSVFLFPPKPKDTLMISRTPEVTCVVVDVSHEDPEVKFNWYVDGVEVHNAKTKPREEQYNSTYRVVSVLTVLHQDWLNGKEYKCKVSNKALPAPIEKTISKAKGQPREPQVYTLPPSREEMTKNQVSLWCLVKGFYPSDIAVEWESNGQPENNYKTTPPVLDSDGSFFLYSKLTVDKSRWQQGNVFSCSVMHEALHNHYTQKSLSLSPGK
chain 2: QAVVTQEPSLTVSPGGTVTLTCRSSTGAVTTSNYANWVQQKPGQAPRGLIGGTNKRAPWTPARFSGSLLGGKAALTITGAQAEDEADYYCALWYSNLWVFGGGTKLTVLGGGGSGGGGEVQLQQSGAELVKPGASVKLSCTASGFNIKDTYIHFVRQRPEQGLEWIGRIDPANDNTLYASKFQGKATITADTSSNTAYMHLCSLTSGDTAVYYCGRGYGYYVFDHWGQGTTLTVSSGGCGGGKVAALKEKVAALKEKVAALKEKVAALKE
heavy: QVQLVQSGAEVKKPGASVKVSCKASGYTFTSYWMQWVRQAPGQGLEWMGTIYPGDGDTRYTQKFKGRVTITADKSTSTAYMELSSLRSEDTAVYYCARRGIPRLWYFDVWGQGTTVTVSSASTKGPSVFPLAPSSKSTSGGTAALGCLVKDYFPEPVTVSWNSGALTSGVHTFPAVLQSSGLYSLSSVVTVPSSSLGTQTYICNVNHKPSNTKVDKRVEPKSCDKTHTCPPCPAPEAAGGPSVFLFPPKPKDTLMISRTPEVTCVVVDVSHEDPEVKFNWYVDGVEVHNAKTKPREEQYNSTYRVVSVLTVLHQDWLNGKEYKCKVSNKALPAPIEKTISKAKGQPREPQVYTLPPSREEMTKNQVSLSCAVKGFYPSDIAVEWESNGQPENNYKTTPPVLDSDGSFFLVSKLTVDKSRWQQGNVFSCSVMHEALHNRYTQKSLSLSPGK
light: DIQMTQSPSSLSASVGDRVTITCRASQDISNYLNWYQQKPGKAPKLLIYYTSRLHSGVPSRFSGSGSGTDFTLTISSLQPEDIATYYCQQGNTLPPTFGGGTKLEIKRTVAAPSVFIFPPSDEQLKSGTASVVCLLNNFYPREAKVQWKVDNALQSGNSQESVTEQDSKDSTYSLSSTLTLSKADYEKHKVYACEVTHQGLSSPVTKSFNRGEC
notes: Site A CD3, Site B CD8, Site C B7-H3

Assays:
[1] = biological target: T1, 5T4 on JIMT-1 target cells; experiment: cell-based or functional assay
[2] = biological target: T3, CD8 on human T cells (PBMC) (human, UniProt P01732 22-235); experiment: flow cytometry on human PBMC, CD5+/CD4- gated cells (bear CD8 and CD3), detection anti-human Fc (MFI)
T3 construct: whole, on cells; The CD8+ (CD5+ CD4-) cells also carry CD3; also called CD5+ CD4- gated PBMC; CD8+ T cells

[3] = biological target: T3, CD8 on human T cells (PBMC); experiment: flow cytometry, binding to human CD5+/CD4- cells (bear CD8 and CD3) (MFI)
[4] = biological target: T2, B7-H3 on A498 and JIMT-1 target cells; experiment: cell-based or functional assay

T3 sequence (P01732 22-235): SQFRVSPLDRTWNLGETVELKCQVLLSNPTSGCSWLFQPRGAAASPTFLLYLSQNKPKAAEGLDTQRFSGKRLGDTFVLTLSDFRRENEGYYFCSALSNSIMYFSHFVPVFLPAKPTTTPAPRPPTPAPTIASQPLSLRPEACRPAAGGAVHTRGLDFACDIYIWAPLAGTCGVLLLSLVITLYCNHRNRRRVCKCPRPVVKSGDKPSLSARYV

Row | Binder | EC50 (nM) of killing, CD4+ effector cells, JIMT1-luc target cells, E:T 5:1 [1] [nM] | EC50 (nM) of killing, CD8+ effector cells, JIMT1-luc target cells, E:T 5:1 [1] [nM] | EC50 (nM) of killing, PanT effector cells, JIMT1-luc target cells, E:T 5:1 [1] [nM] | EC50 (read off the curve) [2] [nM] | EC50 (read off the curve) [3] [nM] | EC50 (nM) of killing, CD4+ effector cells, JIMT1-luc target cells, E:T 5:1 [4] [nM] | EC50 (nM) of killing, CD8+ effector cells, JIMT1-luc target cells, E:T 5:1 [4] [nM] | EC50 (nM) of killing, PanT effector cells, JIMT1-luc target cells, E:T 5:1 [4] [nM]
1 | B1 | 0.0435 | 0.0013 | 0.002 | ~2 |  |  |  | 
2 | B2 | 0.0336 | 0.0015 | 0.0018 | ~2 |  |  |  | 
3 | B3 |  |  |  |  | ~2 | 0.105 | 0.0053 | 0.0113
